Results: PMC3290569, “Macro-to-Micro Structural Proteomics: Native Source Proteins for High-Throughput Crystallization” (PLoS ONE, 2012)

B1: Lysyl-tRNA synthetase (constitutive) (enzyme, Escherichia coli, UniProt P0A8N3 1-505, looked up)
chain: MSEQHAQGADAVVDLNNELKTRREKLANLREQGIAFPNDFRRDHTSDQLHAEFDGKENEELEALNIEVAVAGRMMTRRIMGKASFVTLQDVGGRIQLYVARDDLPEGVYNEQFKKWDLGDILGAKGKLFKTKTGELSIHCTELRLLTKALRPLPDKFHGLQDQEARYRQRYLDLISNDESRNTFKVRSQILSGIRQFMVNRGFMEVETPMMQVIPGGAAARPFITHHNALDLDMYLRIAPELYLKRLVVGGFERVFEINRNFRNEGISVRHNPEFTMMELYMAYADYKDLIELTESLFRTLAQDILGKTEVTYGDVTLDFGKPFEKLTMREAIKKYRPETDMADLDNFDSAKAIAESIGIHVEKSWGLGRIVTEIFEEVAEAHLIQPTFITEYPAEVSPLARRNDVNPEITDRFEFFIGGREIGNGFSELNDAEDQAQRFLDQVAAKDAGDDEAMFYDEDYVTALEHGLPPTAGLGIGIDRMVMLFTNSHTIRDVILFPAMRPVK
notes: lysyl-tRNA synthetase, constitutive form, Escherichia coli, native source protein; identified with PDB 1BBW; the PDB entry is the previously deposited structure that identified the protein; the crystallised protein is the native one; source: purified from E. coli DH5α cells (whole-proteome fractionation)
B2: Dihydrodipicolinate synthase (enzyme, Escherichia coli, UniProt P0A6L2 1-292, looked up)
chain: MFTGSIVAIVTPMDEKGNVCRASLKKLIDYHVASGTSAIVSVGTTGESATLNHDEHADVVMMTLDLADGRIPVIAGTGANATAEAISLTQRFNDSGIVGCLTVTPYYNRPSQEGLYQHFKAIAEHTDLPQILYNVPSRTGCDLLPETVGRLAKVKNIIGIKEATGNLTRVNQIKELVSDDFVLLSGDDASALDFMQLGGHGVISVTANVAARDMAQMCKLAAEGHFAEARVINQRLMPLHNKLFVEPNPIPVKWACKELGLVATDTLRLPMTPITDSGRETVRAALKHAGLL
notes: dihydrodipicolinate synthase, Escherichia coli, native source protein; identified with PDB 1DHP; the PDB entry is the previously deposited structure that identified the protein; the crystallised protein is the native one; source: purified from E. coli DH5α cells (whole-proteome fractionation)
B3: phosphoserine aminotransferase (enzyme, Escherichia coli, UniProt P23721 1-362, looked up)
chain: MAQIFNFSSGPAMLPAEVLKQAQQELRDWNGLGTSVMEVSHRGKEFIQVAEEAEKDFRDLLNVPSNYKVLFCHGGGRGQFAAVPLNILGDKTTADYVDAGYWAASAIKEAKKYCTPNVFDAKVTVDGLRAVKPMREWQLSDNAAYMHYCPNETIDGIAIDETPDFGADVVVAADFSSTILSRPIDVSRYGVIYAGAQKNIGPAGLTIVIVREDLLGKANIACPSILDYSILNDNGSMFNTPPTFAWYLSGLVFKWLKANGGVAEMDKINQQKAELLYGVIDNSDFYRNDVAKANRSRMNVPFQLADSALDKLFLEESFAAGLHALKGHRVVGGMRASIYNAMPLEGVKALTDFMVEFERRHG
notes: phosphoserine aminotransferase, Escherichia coli, native source protein; identified with PDB 1BJN; the PDB entry is the previously deposited structure that identified the protein; the crystallised protein is the native one; source: purified from E. coli DH5α cells (whole-proteome fractionation)
B4: Adenylosuccinate synthetase (enzyme, Escherichia coli, UniProt P0A7D4 1-432, looked up)
chain: MGNNVVVLGTQWGDEGKGKIVDLLTERAKYVVRYQGGHNAGHTLVINGEKTVLHLIPSGILRENVTSIIGNGVVLSPAALMKEMKELEDRGIPVRERLLLSEACPLILDYHVALDNAREKARGAKAIGTTGRGIGPAYEDKVARRGLRVGDLFDKETFAEKLKEVMEYHNFQLVNYYKAEAVDYQKVLDDTMAVADILTSMVVDVSDLLDQARQRGDFVMFEGAQGTLLDIDHGTYPYVTSSNTTAGGVATGSGLGPRYVDYVLGILKAYSTRVGAGPFPTELFDETGEFLCKQGNEFGATTGRRRRTGWLDTVAVRRAVQLNSLSGFCLTKLDVLDGLKEVKLCVAYRMPDGREVTTTPLAADDWKGVEPIYETMPGWSESTFGVKDRSGLPQAALNYIKRIEELTGVPIDIISTGPDRTETMILRDPFDA
notes: adenylosuccinate synthetase, Escherichia coli, native source protein; identified with PDB 1CG1; the PDB entry is the previously deposited structure that identified the protein; the crystallised protein is the native one; source: purified from E. coli DH5α cells (whole-proteome fractionation)
B5: 5-keto-4-deoxyuronate isomerase (enzyme, Escherichia coli, UniProt Q46938 1-278, looked up)
chain: MDVRQSIHSAHAKTLDTQGLRNEFLVEKVFVADEYTMVYSHIDRIIVGGIMPITKTVSVGGEVGKQLGVSYFLERRELGVINIGGAGTITVDGQCYEIGHRDALYVGKGAKEVVFASIDTGTPAKFYYNCAPAHTTYPTKKVTPDEVSPVTLGDNLTSNRRTINKYFVPDVLETCQLSMGLTELAPGNLWNTMPCHTHERRMEVYFYFNMDDDACVFHMMGQPQETRHIVMHNEQAVISPSWSIHSGVGTKAYTFIWGMVGENQVFDDMDHVAVKDLR
notes: 5-keto-4-deoxyuronate isomerase, Escherichia coli, native source protein; identified with PDB 1XRU; the PDB entry is the previously deposited structure that identified the protein; the crystallised protein is the native one; source: purified from E. coli DH5α cells (whole-proteome fractionation)
B6: MoaB (molybdopterin biosynthesis protein B) (natural protein, Escherichia coli, UniProt P0AEZ9 1-170, looked up)
chain: MSQVSTEFIPTRIAILTVSNRRGEEDDTSGHYLRDSAQEAGHHVVDKAIVKENRYAIRAQVSAWIASDDVQVVLITGGTGLTEGDQAPEALLPLFDREVEGFGEVFRMLSFEEIGTSTLQSRAVAGVANKTLIFAMPGSTKACRTAWENIIAPQLDARTRPCNFHPHLKK
notes: MoaB, molybdopterin biosynthesis protein B, Escherichia coli, native source protein; identified with PDB 1R2K; the PDB entry is the previously deposited structure that identified the protein; the crystallised protein is the native one; source: purified from E. coli DH5α cells (whole-proteome fractionation)
B7: Malate dehydrogenase (enzyme, Escherichia coli, UniProt P61889 1-312, looked up)
chain: MKVAVLGAAGGIGQALALLLKTQLPSGSELSLYDIAPVTPGVAVDLSHIPTAVKIKGFSGEDATPALEGADVVLISAGVARKPGMDRSDLFNVNAGIVKNLVQQVAKTCPKACIGIITNPVNTTVAIAAEVLKKAGVYDKNKLFGVTTLDIIRSNTFVAELKGKQPGEVEVPVIGGHSGVTILPLLSQVPGVSFTEQEVADLTKRIQNAGTEVVEAKAGGGSATLSMGQAAARFGLSLVRALQGEQGVVECAYVEGDGQYARFFSQPLLLGKNGVEERKSIGTLSAFEQNALEGMLDTLKKDIALGEEFVNK
notes: malate dehydrogenase, Escherichia coli, native source protein; identified with PDB 2PWZ; the PDB entry is the previously deposited structure that identified the protein; the crystallised protein is the native one; source: purified from E. coli DH5α cells (whole-proteome fractionation)
B8: Inorganic pyrophosphatase (enzyme, Escherichia coli, UniProt P0A7A9 1-176, looked up)
chain: MSLLNVPAGKDLPEDIYVVIEIPANADPIKYEIDKESGALFVDRFMSTAMFYPCNYGYINHTLSLDGDPVDVLVPTPYPLQPGSVIRCRPVGVLKMTDEAGEDAKLVAVPHSKLSKEYDHIKDVNDLPELLKAQIAHFFEHYKDLEKGKWVKVEGWENAEAAKAEIVASFERAKNK
notes: inorganic pyrophosphatase, Escherichia coli, native source protein; identified with PDB 1IPW; the PDB entry is the previously deposited structure that identified the protein; the crystallised protein is the native one; source: purified from E. coli DH5α cells (whole-proteome fractionation)

Target: the molecule itself
Experiment: crystal structure; native source E. coli proteins already in the PDB, identified and solved by brute-force molecular replacement, not refined except to confirm the solution; oligomer seen in the crystal

Binding result, binds:
B1, B2, B3, B4, B5, B6, B7, B8
